Experimental data reported in patent publication US20240425571A1, “GLYCOPROTEIN A REPETITIONS PREDOMINANT (GARP)-BINDING ANTIBODIES AND USES THEREOF” (OHIO STATE INNOVATION FOUNDATION, priority 2021, published 2024).

How the values were obtained:
[1] = Aggregation potential by DLS analysis; assay type: physicochemical
Protocol: Aggregation potential by DLS analysis. DLS was performed on UNcle system (Unchained Labs). DLS was measured at 25° C. Data was calculated and analyzed using UNcle Analysis Software. DLS: Dynamic light scattering PDI: Polydispersity index, PDI=(standard deviation/mean hydrodynamic radius).
Dynamic Light Scattering (DLS) is used to detect aggregation in the antibody sample. “Mode diameter” is protein particle diameter and “mass percentage” is the amount of each size fraction in percentage. “PDI” is Polydispersity Index; the higher this index, the more polydispersity in the sample is. […] Peak 1 is the major peak and represents the IgG monomer. The inventor takes “Peak 1 mass percentage” and “PDI” value into consideration in selecting a lead.

[2] = target: T1, antigen (Homo sapiens, UniProt Q14392); experiment: Label-free kinetic binding assay on Gator
T1 sequence (Q14392 20-662): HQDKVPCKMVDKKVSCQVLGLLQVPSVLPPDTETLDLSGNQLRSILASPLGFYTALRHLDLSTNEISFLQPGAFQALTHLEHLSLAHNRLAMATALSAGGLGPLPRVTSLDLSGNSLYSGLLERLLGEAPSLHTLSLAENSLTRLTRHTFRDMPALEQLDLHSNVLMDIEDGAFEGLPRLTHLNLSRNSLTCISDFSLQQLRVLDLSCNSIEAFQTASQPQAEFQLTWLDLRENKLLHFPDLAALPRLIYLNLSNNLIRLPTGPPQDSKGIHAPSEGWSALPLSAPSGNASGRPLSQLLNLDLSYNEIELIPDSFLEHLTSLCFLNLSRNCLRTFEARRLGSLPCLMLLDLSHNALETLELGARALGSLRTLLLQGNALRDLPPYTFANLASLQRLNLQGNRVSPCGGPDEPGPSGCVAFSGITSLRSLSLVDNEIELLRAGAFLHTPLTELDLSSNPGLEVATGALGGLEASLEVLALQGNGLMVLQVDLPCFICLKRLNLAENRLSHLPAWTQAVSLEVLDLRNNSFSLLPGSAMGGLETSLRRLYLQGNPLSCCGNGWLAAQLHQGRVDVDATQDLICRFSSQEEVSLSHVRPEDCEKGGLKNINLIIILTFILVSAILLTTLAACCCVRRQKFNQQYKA
Protocol: Affinity measurement. Label-free kinetic binding assay was performed on Gator (similar to Octet).
Methods. Affinity was measured on Gator (ProbeLife, Palo Alto). In brief, the purified IgG sample was diluted in K buffer at 2 μg/ml, and the antigen was diluted at 5 μg/ml. The antibody-loaded anti-human Fc probes were dipped in antigen wells for 5 mins and then moved to K buffer wells for 5 mins. In the whole process, the sample plate was shaken at 1,000 rpm. The data analysis was carried out using Gator software (ProbeLife).

[3] = Non-reducing CE-SDS (heterogeneity); assay type: physicochemical
Protocol: (§1) Analysis of the heterogeneity by Capillary Electrophoresis (CE). The sample was prepared in reducing and non-reducing labeling buffer before being submitted to the CE analysis. A summary of the Reducing-CE-SDS and Non-Reducing-CE-SDS results are shown in FIG. 13A/Table H and FIG. 13B/Table I, respectively: […]

[4] = Reducing CE-SDS (heterogeneity); assay type: physicochemical; conditions: Reducing-CE-SDS
Protocol: as §1

[5] = Thermostability by DSF/SLS (UNcle); assay type: physicochemical
Protocol: Developability Analysis for PIIO-1 humanization leads. Antibodies were analyzed for thermostability by DSF/SLS. Samples were submitted to the UNcle system (Unchained Labs) for analysis. A temperature ramp of 1° C./min was performed with monitoring from 20° C. to 95° C. for DSF and SLS. UNcle measures SLS at 266 nm and 473 nm. Tm and Tagg were calculated and analyzed by using the UNcle Analysis Software. DSF: Differential scanning fluorimetry; SLS: Static light scattering; Tm: Melting temperature; Tagg 266: Thermal aggregation when SLS at 266 nm; Tagg 473: Thermal aggregation when SLS at 473 nm. A summary is shown below in Table F:
IgG is a multi-domain structure and each domain has its own melting Temperature (Tm). […] Fabs have Tm in a wide range, generally about 50-85° C., due to large sequence variation. Therefore, the Tm values measured by various analytical techniques are usually “apparent” transition temperatures rather than the real Tm for each domain. In the case of whole IgG, there are often 2-3 Tm values in DSF measurement, presenting some challenge in determining which Tm represents which domain.
Tagg is the temperature at which SLS starts to detect aggregation particles. Tagg266 measures SLS at 266 nm, which is more sensitive and suitable to detect smaller aggregation particles. Tagg473 measures SLS at 473 nm and is better to detect larger particles.

[6] = system: Baculovirus; experiment: Baculovirus (BV) ELISA for non-specific binding
Protocol: Baculovirus (BV) ELISA was employed as a preliminary assay to evaluate antibody's potential nonspecific binding risk.
In Baculovirus (BV) ELISA, the inventor used Rituxan Mab as reference. […] If a clone only has binding on BV, but not on 293 cells, it will be considered as having a low risk of non-specific binding.
Methods—Baculovirus ELISA. Plates are coated with 50 μl of 1:500 diluted Baculovirus sample in PBS in each well. Plates are kept at 4° C. for overnight. The plates are washed with 300 μL of wash buffer ×3 and 200 μl blocking buffer (1% BSA) is added at RT for 60 min. Plates are washed with 300 μl of wash buffer ×3 and 100 μl of diluted Abs are added at different concentrations/well, followed by RT incubation for 1 hr. Plates are washed with 300 μl of wash buffer ×6 and 100 μl of 1:5000 HRP conjugated second Ab in PBS is added followed by RT incubation for 1 hr. The plates are washed with 300 μl of wash buffer ×6. Developing buffer is added and the plate is read.

[7] = system: Ag(−) cell; experiment: FACS analysis with Ag(−) cell (non-specific binding); conditions: 5 ug/ml
Protocol: Methods—FACS analysis. Cell preparation: Cell were harvested and washed with PBS+2% FBS for one time. Cell density was adjusted to 1.5E6/mL in PBS/2% FBS. Cell were added to 96 U-bottom well plates at 100 μL/well. Antibody samples preparation: Antibody in supernatant was adjusted to 10 μg/mL using PBS+2% FBS, with serial 5 times dilution performed to obtain 3 concentrations of antibody solution. The blank was PBS+2% FBS. Antibody solutions were placed into 96 U-bottom well plates at 100 μL/well in the same arranging pattern as the cell preparation. Incubation: The antibody samples (100 μl) were mixed with the cells (100 μl), and incubated at RT for 1 h, then centrifuged the plate for 3 min at 1000 rpm (swing bucket). The supernatant was pipetted and the cells were washed with PBS+2% FBS for one time. Incubation with the secondary antibody: Cy3-Conjugated AffiniPure Goat Anti-Human IgG was diluted 250× by PBS+2% FBS, and added to the 96 U-bottom well plate with 100 μl/well, then incubated at RT for 30 min. After that, the plate was centrifuged at 1000 rpm for 3 min and the supernatant was pipetted out. The cell was washed with PBS+2% FBS twice. Cells were re-suspended in 200 μl PBS+2% FBS and analyzed on FACS. The MFI of total live cells were used as binding signal.
Methods—heat treatment. Culture supernatant was serial diluted to the indicated concentration of IgG with cell media and heated at 70° C. for 5 mins on a PCR machine, then quickly cooled down to room temperature.

[8] = IgG 2 μg/ml on anti-human Fc probes, antigen 5 μg/ml
[9] = ramp 1° C./min, 20° C. to 95° C.

B1: H1L1: humanized PIIO-1 antibody, VH SEQ ID NO: 20 and VL SEQ ID NO: 23 (antibody, V domains shown)
VH: QVQLQESGPGLVKPSQTLSLTCTVSGYSITSDYAWNWIRQFPGNKLEWMGYISYSGSTSYTPSLKSRVTISRDTSKNHFSLKLSSVTAADTAVYYCAKSGGDYYGSSSYWYFDVWGQGTMVTVSS
VL: DIVLTQSPSSLAVSLGERATMNCKSSQSLLNSRSQKNYLAWYQQKPGQPPKLLIYGASTRGSGVPDRFSGSGSGTDFTLTISSLQAEDVAVYYCQNDHSYPFTFGQGTKLEIKR
PDI compared with WT [1]: slight worse than WT
Peak 1 Mass ([1]; DLS at 25° C.): 99.95%
Peak 1 Mode Diameter ([1]; DLS at 25° C.): 9.68 nm
Peak 1 PDI ([1]; DLS at 25° C.): 1.228
Peak 2 Mass ([1]; DLS at 25° C.): 0%
KD value compared with the chimeric [2]: same KD value to the chimeric
Rmax [2, 8]: 0.791
koff [2, 8]: 0.00081
kon [2, 8]: 1.01E+05
Main Peak (%) [3]: 97.6%
OTHER (%) [3]: 2.4%
OTHER (%) [4]: 0.9%
PK#1 (%) [4]: 5.6%
PK#2 (%) [4]: 23.2%
PK#3 (%) [4]: 70.4%
SLS Tagg 266 ([5]; SLS at 266 nm): 74.2 °C
SLS Tagg 473 ([5]; SLS at 473 nm): 74.9 °C
DSF TM2 [5, 9]: 83.7 °C
DSF Tm1 [5, 9]: 70.2 °C
BV ELISA with purified IgG, raw BV binding data ([6]; Ab. Conc. 0.15625 ug/ml): 15.0
BV ELISA with purified IgG, raw BV binding data ([6]; Ab. Conc. 0.3125 ug/ml): 16.2
BV ELISA with purified IgG, raw BV binding data ([6]; Ab. Conc. 0.625 ug/ml): 14.7
BV ELISA with purified IgG, raw BV binding data ([6]; Ab. Conc. 1.25 ug/ml): 16.0
BV ELISA with purified IgG, raw BV binding data ([6]; Ab. Conc. 2.5 ug/ml): 18.3
BV ELISA with purified IgG, raw BV binding data ([6]; Ab. Conc. 5 ug/ml): 24.9
BV ELISA with purified IgG, raw BV binding data ([6]; Ab. Conc. 10 ug/ml): 52.7
BV ELISA with purified IgG, raw BV binding data ([6]; Ab. Conc. 20 ug/ml): 157.2
FACS with Ag(−) cell (MFI) ([7]; Heating): 3.36
FACS with Ag(−) cell (MFI) ([7]; Non-Heating): 3.31
